± gives the half width of the 95% confidence interval.
Experiments:
[1] = folding stability dG unfold from trypsin proteolysis; higher = more stable
Method in brief: (§1)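 Only designs with AlphaFold2 dimer inter-PAE above 15 were retained; each was a mini-protein under 80 residues with no cysteine, in a PA-tagged cDNA display construct. After digestion with trypsin and chymotrypsin and sequencing, K50 was inferred by Bayesian fitting of counts, and unfolding free energy was derived per protease or combined against a sequence-predicted unfolded-state K50 and a shared folded-state K50.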

[2] = folding stability dG unfold (combined trypsin and chymotrypsin); higher = more stable
Method in brief: as §1

[3] = folding stability dG unfold from chymotrypsin proteolysis; higher = more stable
Method in brief: as §1

Sequence	folding stability dG unfold [1] [kcal/mol]	folding stability dG unfold [2] [kcal/mol]	folding stability dG unfold [3] [kcal/mol]
SAGGSAGGSAKEKYILLKVKPGQKVEIEYENGEKKEVEVLEDGYLLIKVKEKNAKIKIKIKSAGGSAGGSAG [r3_334_TrROS_Hall]	1.85 ± 0.17	2.76 ± 0.32	2.82 ± 0.051
SAGGSAYGYFYEYKIRFNGQDLSIALPAGDMEKLKDLPGVEIEPRRPEEPPPPPKEEERDPDGKKKSAGGSA [r15_443_TrROS]	2.3 ± 0.18	2.8 ± 0.24	2.98 ± 0.071
MPARVEARRIPDEPRLEVVVDFPGYRVVVRVDEGGRVEVEVVWEENVGPEERAAAEEAAEAFAREVAEALGS [r1_468_TrMRF]	0.401 ± 0.19	0.839 ± 0.099	1.05 ± 0.039
SAMTLTLEFENLKDLTEEEIEEALKEAGLPGVKILGIKKTSEKWTITIAYDSSTPKEKIEAAIKKAVAESAG [r14_657_JUSTAS]	5.03 ± 0.35	4.56 ± 0.18	4.64 ± 0.13
SAGGSAGGSAGGMNIKVLKEFEFETEDGVPVRYLLVDAGGEEGETVVIKETPTSIEIIPFSAGGSAGGSAGG [r7_960_TrMRF]	0.856 ± 0.025	0.694 ± 0.11	0.511 ± 0.17
SAKKPKKVIEVTIVLPLEELKNMSLEELLKKILEELGIKEGEKVKIEVKLEEVEIDGKKYLVITVRIELSAG [r14_334_TrROS_Hall]	2.87 ± 0.13	2.69 ± 0.15	2.69 ± 0.11
SMKRVLILVPDPSVDKEELIEELKKKGFEDIEVVDSEEELKKLPENIDVVVIVRDGEVEVREVPPVEALKSA [r9_750_JUSTAS]	0.698 ± 0.037	0.706 ± 0.11	0.585 ± 0.1
SAGGSMVSEEEIKEIVEKTAAELPEDAVEPVTVTIELPNPDGTTTVLTITITRSPTSISYTVSSSPAASAGG [r19_220_JUSTAS]	3.56 ± 0.11	3.34 ± 0.039	3.27 ± 0.048
ADFRVTEESPEGVVTQTTTVALPDGTSRTLTYSYSKDASLTSVTVSYTPDSVTTTTTPVTPVPPGSPELAGS [r1_53_JUSTAS]	-0.411 ± 0.17	0.0981 ± 0.13	0.24 ± 0.19
SAGFYFRITEITVNPDAGKLTIRNPNGQEQEIPPGGKISIKMRFYRFNDNGGKPETFEMEHTIPIPPGDSAG [r14_366_TrROS]	2.62 ± 0.042	3.15 ± 0.12	3.43 ± 0.085
SAGKKIELTFRNPDGWMIRITIEKKPNGGFQITEITWEPYPNGRMSAKIYVPNGKTIEVNSWDDILDALSAG [r5_618_TrROS]	1.09 ± 0.038	2.12 ± 0.12	2.57 ± 0.075
SAGMIEITLYPPKAVVDVTVTIGGESESRTIPVDGKSKEEVIEEAREEVKAEYPDKAITTKVTEVPGDGSAG [r5_180_JUSTAS]	-0.437 ± 0.18	0.641 ± 0.071	1.03 ± 0.098
SAGGSAGGSAGGMPGVTTTSTTTTTLPNGTVVTTTTTTVLLPTGTTVTVTVTTTTSATTSSAGGSAGGSAGG [r11_274_JUSTAS]	2.77 ± 0.11	2.68 ± 0.12	2.61 ± 0.088
SAGGEKIEELLKELLEKLEIKPGEKVEIEIEFELEDGYRIKLKITVTYNEETGEVEIKVEIVEIEKVSAGGS [r16_634_TrROS_Hall]	2.96 ± 0.12	4.22 ± 0.19	4.39 ± 0.17
SAGKIEKIVITKKKDGYVIKVYYKDNKKVKTYKAGKTLEEIKKKLEEEGFEIVKVEVKKVKPGEKVEISAGG [r19_386_TrROS_Hall]	2.32 ± 0.18	3.06 ± 0.43	3.23 ± 0.21
SAGGKEVVIVFPLPENFEAEIFIPDRPVVRLENGLLVAVAPENVPALIVIRNPNGEELVLPVELLDLSAGGS [r8_72_TrMRF]	1.27 ± 0.037	1.32 ± 0.084	1.28 ± 0.014

Sequence	folding stability dG unfold [1] [kcal/mol]	folding stability dG unfold [2] [kcal/mol]	folding stability dG unfold [3] [kcal/mol]
SAGGGSSSTTLTLREVTEVIVIPVPPEEEELAEELAKKYESQGIKVELERLPDGTWKLTLTYYRGVSLSAGG [r13_702_JUSTAS]	1.15 ± 0.11	1.03 ± 0.081	0.827 ± 0.15
SAGGPKWYYITIKIPDDPKKAERLVDRLQDLFGEDVRINVNPGNNHVTVWIPNDLRPLLKDHGLEITPSAGG [r13_156_TrROS]	2.94 ± 0.086	2.93 ± 0.047	2.95 ± 0.02
SAGGSKIHIPIDPESGNFRIKVYPPDEPKEVSIQFKDPDDPEEFMDRAIEEANEYANNGYRVEIEPSAGGSA [r2_118_TrROS]	-0.52 ± 0.3	-0.668 ± 0.48	-0.278 ± 0.58
SAGGSAGGPLYRVLILLKKPNGEPLLLPLVAEDPEKALELAERLRKEYEEKGYELVAVEIYEFPSAGGSAGG [r6_869_TrMRF]	4.37 ± 0.22	5.22 ± 0.22	5.26 ± 0.13
SAGGSAMPKFYLDENGNPVYELPEEPTINTPLKIGIFDEENNPAIEIEIPGSTPLEEIIQKIKDAASAGGSA [r15_309_TrMRF]	0.674 ± 0.065	0.677 ± 0.2	0.483 ± 0.14
SAGGSAGGSADGNKPPEIKINLEVERHPNGMVEITATLHWPGGKEFPVRIMYNPDKIFIEISAGGSAGGSAG [r3_259_TrROS]	2.95 ± 0.31	3.19 ± 0.14	3.4 ± 0.16
SAGHPWMFRAKVEYDDGKPVGEREINIPGMPIDDIASDLFNEPGLRKVKIEFYWMDGEPQEIEIPVKPSAGG [r19_269_TrROS]	0.801 ± 0.097	0.689 ± 0.21	0.457 ± 0.28
SAGGMISEEDIEAAAKAIVEAAKNGDPERIEEEYARLEEALEEAEKEGDPERRGRLAKAVEAAKKLLGSAGG [r13_137_TrMRF]	1.43 ± 0.02	1.64 ± 0.12	1.75 ± 0.043
SAGGSAGGSMKITKTEEGVYLVEFTLPDGTPLVIPFPTDDPFLTEEQAVEIAKPIAAAFAAAGSAGGSAGGS [r12_642_TrMRF]	0.84 ± 0.016	1.22 ± 0.044	1.35 ± 0.038
SKTIMFQFDSIEEIKDFIKEAIDDGDPDQKIRIEWYPPGGRRQEHEIESPEDIIDFLENGPYWIRVEIEPSA [r9_589_TrROS]	1.68 ± 0.052	2.05 ± 0.12	2.16 ± 0.047
ARELPVEEIREAVREFLRKHGFRVVSEEVVELPDGSVLVFVEAEPEDKSTRYRLVITRPVDGSVRLVIEPVS [r1_460_TrMRF]	2.66 ± 0.044	3.283 ± 0.028	3.588 ± 0.011
SAGGGMLEVTREPSPDGVTRYVVTVPADRTVTVTRPDGTTTTTAAPDADAVITYTVPPGTPVAVSLTPSAGG [r13_82_JUSTAS]	0.555 ± 0.03	0.207 ± 0.092	-0.524 ± 0.28
SAGGSAGGSAMLRIKIYYKKNGEEYEIEVEGSLEEALKEAAKKLGLSEDEIKKIEIEELPESAGGSAGGSAG [r3_79_TrROS_Hall]	2.66 ± 0.12	3.41 ± 0.2	3.73 ± 0.086
SAGGSAGGSAGGMRKYLVTLKPPNGPVTRYILPSEEEIKEFVAPLNAEYEVTPLSEDVPPSAGGSAGGSAGG [r7_456_JUSTAS]	0.0557 ± 0.1	0.515 ± 0.088	0.72 ± 0.072
SMRVTIMIPVPPGLKNLKLEFKLPYPDGREVDVDIQVDPNYITITVEMNNPGQMDWVQERFQEEIEKLLGSA [r9_790_TrROS]	3.24 ± 0.1	3.64 ± 0.16	4.09 ± 0.15
